Source: the DeepSol protein solubility set

Assay: soluble on expression in E. coli; label from the status in PepcDB or PDB records

| Sequence | soluble on expression in E. coli |
| --- | --- |
| MISVNKVFYAHSERFQMQNMNVHIKAGEVVSLIGPNGSGKSTLLRLMARLLKQSEGDIVLDGKSIHTMKSADVAKQLAMLPQMHDHQLDLTVKELIEFGRGPHKSWRGRLNKEDEEIVDWALSVTNLEGYEYRLLQSLSGGERQRAWIAMTLAQRTNVLLLDEPTTFLDIVHQLEVMELVKRLNEEFGMTIIMVLHDINQAAQYSDRLLVLKRGKLQYDGVPEEVLCHEMFQHIFGIEVDIFQGSEKPFFTPKRISKKGGAKCEQKNVLPLS | not soluble |
| MTKFVAKKAILLLSLLLLGTAESKPLDAEQQHIDDQHVRKERQLKMAGSADPDVKMVANVTPATGSQPMSMTMGVPMNQMALSSVGGQLVRYPNYPGLIYPGLAPAPGLNGVPGLQTNIANNYPSYPDPNLTGSVPGFNPFGSFGYPGVAPMYGNSLMYPNPQLPNGFVPNPAVDNFQSLNNIVNMANVQGLAGGSSGIYPAPQGFGGVSPGLYPAPQGFGGANPGLYPAPQVNMQGLYPPSGGFLERMNMQGYAPGFLEHHHHHH | not soluble |
| MSLNDTVTVRISFAVNIATRVIAEVPLFSLTKPSHQELLQKIAEQSRSPFNYPDVGASLCEFPSGYEHHHHRVRLGRGQEVFDRAKEALGNWRQFDVGWVEAIPSDTSITVGNTIAIRVRIFGVWAMAFDRIVDVYGEQDGECRRFGFSVGTLTEHPEQGEERFSIEIDREDHVDYEVAAFFRPNTLAAKMAWPVLHRRFNRFRNQSAEAMQLACKLGPSSEGHHHHHH | not soluble |
| AHHHHHHGSILEKAREILEEHQLCNHCLGRLFGKLGKGTNEERGRAIRLLLSMETGKEYKEPEKCELCGGVFNNLDKFAELCIKAAEGIEFETFWVGSRFPEEIEKKEEEIWRKFRVVSGEKITKEFNRELGKVIAVRYGKTPVKERPDVVFIVEPFSEKVELQVNPIYVAGRYRKLIRGIPQTPAPGFKESIATIICRAFKKHFHGKCIFKGAGREDVDVRMLGNGRPFVVEIKRPRKRKVNLKDIEEEINQSGKVEVLNLRFITPEEAERILTTRHRKVYEAIVYVKDGITKEEVEKVVKSLKNAEIKQRTPRRVLNSRADLVRVRKVYDVKGELIDDKHFKLRLVTDGGLYIKELISGDRGRTTPSVSEILGKEAWCEILDVLEVLDDVEGDN | soluble |
| GVDGCGSVTLAYDGFNVNLLHSKVSDSLIPSEFQGEQGSVLVDMIATGRGVERILRGEEKETLTLPQTENHMFYEAEAFAKQLKLGVIDEQMKQRSLTVAKVLTEVRKQTGVVFPADQ | not soluble |
| MGSDKIHHHHHHMNAAENGLIPGAANSAGTKAYVARFAGTLADEHFSDFLNTRIKLSSLGVGTFPGGVDDVTDVAVAAIVARALQSGINVVDTGANYRLGRAGRAVGVGIAKAIAAGIQREEFFVVGKGGFLTFPDGRPEDPLTFFREEVAAKGLGKEEDLAQGVHCLSPEYIAWQLDTLRAQTGLGTLDVFLVDQPEVHIPLIGKEQMYRKLTDVFTMLEAAVQANKIRYYGISTFNACRVETDNTLFQSLTSLIGLAEKAAGQGNRHHLRVVQLPFNALMPEAYTRFSQVTGQGNIGSTIQAAFQLKLTIMASHPLGKGLLAREEVPSLQEAMPELADAAQRAIQFVRSTPGIGVTLVGLSTPLHLPDFLAVARQLPLSKERYLAMFEKEQ | not soluble |
| MGHHHHHHSHMEWKVKIRSDGTRYITKRPVRDRILKERALKIKEERSGMTTDDDTMSEMKMGRYWSKEERKQHLVRAKEQRRRREFMMRSRLECLKESPQSGSEGKKEINIIELSHKKMMKKRNKKILDNWMTIQELMTHGAKSPDGTRVHNAFLSVTTV | not soluble |
| QNFAIPTSSLEKTLLIGDYLFVSKLSYGPRSPMTPLGVPLTHNTMPLTGGKSFSDKPLLPYKRLKGFGHVKEGDLVVFNFPAGDTVAVKQPNPDYYMWKKLVGREELWSNPDFYGEIVYRPVDRRDHYVKRCVGMPGQELSIRNNQIYIDGKEQRNPRNMQLNYLVRMSREMSVDLIDELGISYDDVRAASSEELKASVGSNLIDSASNQPQIIYHLPLTQGMLDKLQAEPSFVKAVEEPTPIGPLYPLEYETGWTRDNYGPIVIPAKGMTVRLTPLNLALYSRCIRNFEGNKLVQKADGTVLINGRPADSYTFKMDY | not soluble |
| GSSHHHHHHMLKIGSHVSMSGKKMLLAASEEAVSYGATTFMIYTGAPQNTRRKPIEELNIEAGRKHMEQNGIEEIIIHAPYIINVGNTTKPETFQLGVDFLRMEIERTSALGVAKQIVLHPGAHVGAGADAGIQQIIKGLNEVLTPDQTVNIALETMAGKGTECGRSFEEIAKIIDGVKYNEKLSVCFDTCHTHDAGYDIVNNFDGVLNEFDKIVGIDRLQVLHINDSKNVRGAGKDRHENIGFGHIGYKALHHIVHHPQLTHVPKILETPYVGEDKKDKKPPYKLEIEMLKNGTFDEGLLEKIKAQ | soluble |
| MSLKCEYLIIGSGIAGYNALKELLQIKPNSRIIMITSDKYYPYDRPPLSKDYLKGKLEKDMLFFESDDFYKRDNLEVMLNKSVERIDANLKEAILNDGSVISFDKALISTGGRPRRLNIPGSENALYLRSLDDADRIREAASKGKNALIIGAGFIGVEVASSLITLGVKTTVVEVMPYIWNTFVDEKVSRVIQQYLESKGINFILNESVKEIQGKIATTSSGRKIEADMFLIAVGISPNVELAQRSGMQVDNGIVVNEYLETSARDIYAAGDIANIFDPREGKRKRIEHWNNAEYTGKLAARNMAGSREAYNFISSIWSDIFDLHIESAGETRNYDEYIIRGKFELERPRFSVIYLKGGIIKGYLAINRNVKEIIALNKLIQKQADVSSKRDKLADESFDLQKLLIEGHHHHHH | soluble |
| MSLERQEHSPLILLGEDEKFQATIVKDVLERKNFDVRIAPNGKVAYEMFCENRLFQLVIVDVFMPVVDGLRSVKLIRQYESNHQIERCPIIICSGNESIIRSGNNSQDTGGDAFVSKPFRPSLIDLVYKLIGKKEGHHHHHH | not soluble |
| MGSDKIHHHHHHMDVQVYFSKVEDPRVVGRCKHKLSDILVIALASYLCGGEDYESMHELCLERGASLRPPVELPNGCPSVDTFERVLQRIEPQSLYACLQVYGKELISDLEGKHIAIDGKRLKGSKKKTGSTHILSAWVDEVSLSLAQETVAEKRNELQAIPEVLDSLDLSGAVISINAMGTQTNIAEQIIQSEADYILSLKSNQKHLYEDVQDYFTGQYRCHRYETLEKDHGRIEKRTYTTLLASEVFEEGEYSQWQGLRSLIQVEREISSLEGETRIDRQYYISSLPPEDCQLIGQYIRGHWGIENRLHWHLDVTFREDTCRARKDYSATNLNTLRKFALAIVSGHKDKLSLRKRLFKAALNIDYLKKLLKI | not soluble |
| MSLNPPLPHFRYHPEPLASGSIEASATTCQCCGKARGYVYTGSPYSRHELPPGSLCPWCIADGSAAARYEASFSDDYPLLDAGVAADIVTEVCERTPGYTSWQRERWLVCCEDACAFRGDAGREEIGQLGAEGLAQRFADFAWPAITWQRLVDAYTPGGNPAIYRFDCLHCGQAHYDLDFTEGGSHHHHHH | soluble |
| MASFARRAMSLAQIPSARISSGAASIGQRRCLAGAADHHGSTKVDFWKQPTNPGNWKEEHFVLISLSGWGLLFYSGYKLATGGKKEYTMSFIVTRKTFYGETSHSHALCFPF | not soluble |
| SNRLDGKVAIITGGTLGIGLAIATKFVEEGAKVMITDRHSDVGEKAAKSVGTPDQIQFFQHDSSDEDGWTKLFDATEKAFGPVSTLVNNAGIAVNKSVEETTTAEWRKLLAVNLDGVFFGTRLGIQRMKNKGLGASIINMSSIEGFVGDPSLGAYNASKGAVRIMSKSAALDCALKDYDVRVNTVHPGYIKTPLVDDLPGAEEAMSQRTKTPMGHIGEPNDIAYICVYLASNESKFATGSEFVVDGGYTAQ | soluble |
| MSLQPTAGETTFERVRRTRKLRIGAVNGGAPYYYRDLASGQWKGFYIDICKALADEMECELDVTETTWGNSVLDLQAGKTDVFFGLNPTPKRALVVDFSVPVFANAFTFITRKGFERKTWAEMNDPAVRIAVDAGSSHDAVVTRLAPKAQITRLKGADDATAALQAGRVDAQCLVFILSLTVLKKNPALGQFTLPTPIFSTTSNAGFRREADKTWRDYVSTWIEFNKGMGFIRSAIIGNLESEGHHHHHH | not soluble |
| STKTNVVEVLNKQVANWNVLYVKLHNYHWYVTGPHFFTLHEKFEEFYNEAGTYIDELAERILALEGKPLATMKEYLATSSVNEGTSKESAEEMVQTLVNDYSALIQELKEGMEVAGEAGDATSADMLLAIHTTLEQHVWMLSAFLK | soluble |
| MSTFGEHRPYVFLPPADLDRIAAQWSKDSARPDAQGRGIAIFSAITGSYDSINHHEHLIPGADYLLFSDAPKPRYVYQPRQAPWFDCDTVRAARFIKTHPHMLLGGYRIAVWIDGNILIRGDLLPLVQRFEESGLAFGAVPHPLRQSVYAEAVECMKRGKDDEATIRRQMQRYRREEFDCEDLIESNLLMFRLGHPSLAPLLDTWWAQIESGSRRDQLSLNYALHKTGVEWLALTQRPHSVRDHPALALMHHRSQFNPLEHHHHHH | soluble |
| MGSDKIHHHHHHMLPRLLDRCAGMVSHDWTALDRDLRRFLPKKSVVSKRQELLVYDCDGLTIDRHCPPLAVLPETTEEVSQILACCHRHSIPFVARGSGTGLSGGALVEQEALLVVTSRMRRILSMDLDNHTITVQPGVINSWVTRAVAGEGFYYAPDPSSQVVCSIGGNVAENSGGVHCLKYGVTSNHVLGLEVVLADGTVTLLGGGLPEHAELDLRGAFIGSEGTLGIATAITLRLLRAPQHVTVLLADFPTMESAGEAVCQVTAAGVLPAGMEIMDNFMINAVNDLFGFDEYPRDAAAVLLIELDGQAAEVTVAADQASGLCSKAGARTIRRAEEPADRALLWKGRKSAFAAVGQISPTYYVQDGVVPRSTLPRVLMAIERLSREYELPVANVFHAGDGNLHPLILYNADTPDVESRVRDLGSAILRECLDVGGSITGEHGVGADKRCYLDWMFAADDLSTMKLLRRAFDPDGRANPDKIFPTPKSCGESARRQVILTSEGLEMPSEAKAF | not soluble |
| MSLKSRTIKSIEVFPVQLPVKRTFNFASGSAGAQGSLAKLVFVKVTDSEGCHGWGEGRAHPQWSYETPESLVSTLRKHLAPAVIGLDIWDRRNLHARMHAAVGRGPSTGMPVAKAALDIAVHDLCARASGLPLRAFLGGSSEKTEVALSWTVAVKSPAEVGDDVAAGRSEGFAHFNFKVGVSLKQDEELVRAARTHVPADSFLWMDANQGVEFTRAVRLARVLEEHAVNVLEQPLAADQMHQMRHLRSQTAIPLAVDESSVSPGDYFAHAAEGLVDYFVLKLTRTGGIWPTLLQLGTATSAGHGLLVSGLSDSMVTKLAACQVAAAFGFTGPAALNGSQFLDDSVLFPTKSAVERRGIVHLDTSPGLGIEPDENALRAHAWKTDCVEGHHHHHH | soluble |
| GIDPFTKMGGDRRPITILTSDLRGFTSTSEGLNPEEVVKVLNIYFGKMADVITHHGGTIDEFMGDGILVLFGAPTSQQDDALRAVACGVEMQLALREVNQQVTGLGLQPLEMGIGINTGEVVVGNIGSEKRTKYGVVGAQVNLTYRIESYTTGGQIFISSTTLEAAGDRVHVNGNRTVQPKGVKDPVVIWDVAGVGEPYNLSLAVEEQ | soluble |
| MENLKETVDIVVNSRYPEMNREGRELLAQVLIRKELEKGEMLLNEGQISRHMVFVGKGMLRQFYYKNGKDVTEHFSYEGCILMCIESLLKQEPTHLMAEALEPAVVYMLPYDVLQKLLEQSKEINAFYRKVLEYSLIVSQIKADSWRFETARERYNLLLHHHPEIIKRAPLSHIASYLLMTPETLSRVRSGVL | not soluble |
| MGSDKIHHHHHHMLRAELHVHSSFSDGRDGVRKILEAAVEKKLEVIAITDHDTVQGSLEAIDIVKEEHLPLKVLPGCEVTASTGHVLVYGITKDIEPRMSVEETCKIARELGGVCFLAHPFDFIRKGSVRLKDFKMVDGIETFNAKSYFNFLAKRYAKKLSKPEIAGSDAHSARAVGLAINYLPDEFDLLNALFHARFDGRRVSIRERLAFLRFRLNQRL | not soluble |
